These results are taken from a protein production outcome set (Wang et al. 2014).

The data set in a line: label from the status in PepcDB records.
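Also: failed if final PepcDB status was selected cloned or expressed and not failed if soluble or beyond.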

“MTAEILVFSLIIPLVVAFILPALKPKAATWLSAISFLIPMFVTLGFLLTTKETIEVPIMSLPAPVGEFYLLADPISNAFGFTICLVSAMVAFYSLPYMKHRFEEMLHDGEIRSIEWEFRKYWFLYNLYAVAMLWLVYAGNFILLYIFLEISLLASFLLIYMYGYGNRQWVAVLYFVWTHIAGVLALLGILIIGFENSTMAFNAVKAVGFTAWLLIFLGMLVKLPGLGPHIWLPWAHAEAPTPVSALLSPLTVGLAGYVLLRVYMIDSSFIDQYRDIIIAYAIVSSIYAGFSVFKQKDYKRLLAYSTVSQMGYVLIALCLGSYGLLGVVIQYISHAFGKSILFMTAGAIIASFHGLRDINRMSGMHEYVPTIANAALLGFMTLSGILTIGMFGEFYILAGLTTIYGFNLAVILAVVVVFIISGLYSFYTMKVIYYGTPAGYEKPKVSRLLDVPLYVVAFFSVAFIFPPLSTALLSGLKVVLGIGGVMP”: the protein production result is “failed”. Then “MTAGGPLITAALTAYDAEDTIAGALASALAQDWPSLEVLILDDASRDGTRKVIEAVITERGDQGPPIRLIALDKNGGVAQARNRLLAEAKGEVIAFFDDDDISAPDRLRRQYARLIAAERETGAGLVFCHAARCQILPDGGERLEGTMGEEGGPIPGGDAVVRRILLGTLSPGVRGSCATCSQMARTASYRALGGFDPTLRRAEDTDLCLRAALGGAVFAGLSAPLVTQRLTLGGDKTPREDHRAYQALLNKHRATLAKTGWLTFYARWQDIRLAHLEGRTGRVVLGLVGLGLSHPLKLARKIVWSLPAAGTRAAYHRQHRKDTS”, with “failed”; and “MTAGLSAVVVGADRLGNIPDLLKGHNISITHHISGRDPSHQKKTLQLPSGTQLVILLTDFLGHNVMKTFRHAAQRGGIRVVACRRSVCSMQQALHQCGLCARSLEHHHHHH”, with “not failed”; and “MTAHFRPAVYDLPRDGHTVFRWEHPPQQATVELERLQRKQSLAAAFRVFARLGFDMGGAGHITVRDPGRPDHFWVNPVGVYFGHVRVRDLLLVNPEGAVIEGEGALNLAAFAIHAALHEAHPEVVAAAHAHSLYGKAWSSLGRLLDPLTQDACAFYERHGLFDNFSGVVLEASEGVRIAAALAGRKALILQNHGLLTVGETVEAAVWRFIAMDNAAQTQLLAEAAGTPRPIPHEVARHTARQVGTEFGGWFSFQPYRERIVREEPDFLDLEHHHHHH”, with “failed”. “MTAHWRYLNSLQPLSNLFIQAALRRKVTGTQLPDLGLRSWIAVDNDKLEAYRKVCGFADSSLLPPTYPHALAFTLQMQLMTSPEFPFPLLGLIHLGNQIRTLRPLGGVSQLYISVQATDLRPHPKGATFTLLTQAEDGMGLLWEEESTLLCTAVHLEDAPVPMPEAYLRPLIELDRWRASAQIGREYAKVSGDYNPIHLSAASAKLFGFPRAIAHGMWLKARALAALEDHLPASNVQISVQFQKPVRLPADVTLSASAAGSHGEFRVEGQEGIVHMIGSWQPATD”: the protein production entry was “failed”. In the case of “MTALKICLIGGSGFIGRHLAAQLASRGHRITIASRRTGLPDFRVLPSAELVSADIHDPGQLAGLIAGHDAVVSMVGILHGSRAQFEKAHAQLPEKIVDACRRQGVRRLVHVSALGAAQDAPSDYQQTKALGELAVESSGLDWTILRPSVVFGHGDAFLNMFAGLQKRLPVLPLAGAGCKMAPVWVEDVARAVCECLARKETEGRKLDLAGPETYTLAQLARLAGRASGHPRPVFGLPYGLAMLQAALMEWLPGPTLMSRDNVRSLQWDNVSDQPFPSALLGFEPAALSALAPGWLAGRDRNDTASRYRAKAAR” it was “failed”; in that of “MTALRQDIDPNGLLEYSVVYTDRALNHMSKAFQEVMNDLLSNLKTVYNAEAAVIIPGSGTYGMEAVARQLTIDEDCLIIRNGWFSYRWTQILEKGKFAKSSTVLTAERTEDTEAPKPFAPVDIETAVAKIKEDKSAIVYAPHVETSSGIILSEEYIKALSEAVHSVGGLLVIDCIASGCVWLDMKELGIDVLISAPQKGWSSTPCAGLVMLSAAAIKKVESTESNCFSLDLKQWLTIMRAYENGGHAYHATMPTDSLRQFRDAILEAKEIGFDILRDAQWELGNRVRKVLTDKGIESVAAEGFEAPGVVVSYTERDDMHKGSAFAEAGLQIAAGVPLKVGEPDNFKTFRLGLFGLDKLTDIDGTVERFEKALDEVLAK”, “not failed”; in that of “MTALTPLQRLWLTETVRLREEHAGPLEDQEANRLARNQGGDLATRIQNRALWLAQRDGLHSALLHWHQGARMALLALSVLAVISGAGLAFSALGSTQQPVNVFWALGSLLGINLILLLSWLAGLLFAGEHGASLGRLWLWLSEKFSRDAKAAQLPPALLLLLQRRKLNRWALGSLINGLWCLALFSAVVMLLLLLTTHRYSFVWESTLLGSDAFVAITNTLSALPRGLGFGAPSVASIQASTRDVYNTELIRQSWAIWLVVLVTIYGVLPRLLLMLFCRWRWKHGQARLQLDLNLPGYAQLRERLMPSSERLGVNDAAPEQLHRVEGGVSAQDSSGALLVAIELDNQRPWPPQLPESIKDAGILDSRESRSRLLEQMSRFPPARLVIACDPRRSPDRGSLGLIAELARNASATRVWLLQAPPGQALDADRLGDWHSALHKLQLPFADCAPLDWLENGHD”, “failed”. “MTARDDETIAFYSGHATAYTSRGQAPDRPHLETFLARLRAGAKILELGCGGGQDSEYMLSAGFDVHPTDGTPDIAKAAQARLGIPVRTLLFENIEDAALYDAVWANACLLHVPRLALPGIIGRIHTALKPGGVFYASFKAGEVEGRDTFGRYYNYPSKAWLEETYGQFAWTEVEIEARQGSGYDKLPTDWLHVTATKALEHHHHHH”: the protein production entry is reported as “not failed”. On to “MTARELLKIVVVGHVDHGKSTIIGRLLYDTKSVPEAAIERVKRISKEKGRPFEYAYLLDALEEEQKQGITIDTTQIKFSTPKRDYLIIDAPGHKEFLKNMVSGAANAEAALLVIDAAEGVQEQSKRHAYILSLLGIQKVYVIVNKMDMIEFSEKKFKEIKYEISTFLSKLNVYPQKYIPVSGFLGENIARKSDKMPWYKGETLLQALDLFEKDKELEDRPLRFPIQDVYKFDHRRVIAGRLESGRLKVGDEIKILPEGKVSKVKSIEFWPENNKKDEVVAGMSIGITIEDEFFNKRGEVIVHKNDNTLYVSDTFRANLFWLGKRNLVKNKTYKLKLVTQETECEIVSIDKVIDATTLETVENALEVRTNDVAEVTIKTREKICFDEFKVNPTTGRFVLVDEYDVSGGGIISGLANLKEEATKFVKDDKEMIVHCFDEYYYSLSEGLIRKHSKYKRTFKVGDAVPIEGETYSYPESFDVIDINGKLVAKVRKGQLSDLVDIDQYIYSELPIITADGFYLKVNSIDEFKDFKNELVQLQKNDNFHLAMFANKWYDISANRSFKFTV”, for which the protein production result is listed as “failed”. For the sequence “MTARPDSSGASSRHDRLQRHPTPNARNSLWRWTDAKHPLRVALNYVVIVLARISPSLHAKNWLLARIGVTVGDGVAWGLESTPDVFWPELVTVGDDAIIGYDATLLCHEFLHDEYRTGAVVVEDRAMIGAGAVVLPGVTIGADAQVAANSLVTADVPPGETVAGVPAAPTGD”, the protein production entry is on record as “failed”. In the case of “MTARSNSSSSGTSSNKRPRTSGSSPSSKSRRGSGSGPAGRSRKTTSAVSYPTNSARRASETSEERTGSAFRAVGSGLGTLVSATAHGVGSVTRAVARTLHREHDDEEFDAVDDAFSSEETVVTNRKRKPSRMTKTKKNLFDDDIEDQHDDFDEEAGLGRFTLALSDESVDSIGLILIALAFIVGASVWFDIAGPIGAAIAAGVHFVIGAGALILPLALVAIAIALMLGKLPEPDHQPRLVLGTSVIAISMLGLIHLFAGDPADWQGRTHAGGIVGAYSGGMIARGFSVYLAIPLLVLVIIYGALRINNVTVKELFEAIQDTVQGLRDDSEDEDDPLYADADAEIEARSRGEKLHRPQPRREKPRPAPERRRMSAPLVDDVDEDVVSRPLFDDPSTAQSQKSSVETQRAARDVSETDEFPAVDEPTVVVPRKPSAPRMSLPQTPVTDVEAAADVVAAGRKAVQDAVKARESHNVGAALAPSTPAQPYEAPESHYAVPSTQLLIPGKEAKTHSEANDRMIEAISDVFAEFKVDAHVTGFSRGPTVTRYEVELGPGVKVSKITNLQSNLAYAVATDNVRLLTPIPGKSAVGIEVPNTDREMVRLGDVLNSESVHSDHDPMLIGLGKDIEGDFVAHSVQKMPHLLVAGSTGSGKSAFVNSLLVSLLTRATPEDVRLILVDPKMVELTPYEGIPHLITPIITQPKKAAAALQWLVEEMEQRYMDMKSTRVRHIKDFNRKVKSGEIQAPLGSQREYHPYPYIVCVVDELADLMMTAPKEIEDSIVRITQKARAAGIHLVLATQRPSVDVVTGLIKTNVPSRLAFATSSLTDSRVILDQAGAEKLIGMGDGLFIPQGGRPQRIQGAFVTDEEIQAVVDAAKAQGEPNYTEGVTEDKAAEAKKDIDADIGNDLEDLLQAVELVVTAQLGSTSMLQRKLRIGFAKAGRLMDLMETRGIVGPSEGSKAREVLVKPEELETTLWMIKGAKPEDAPKEDDWQSADSGVSDASDPSHGERAAYNPSSNAF” it was “failed”; in that of “MTASNPTILALDFDGVICDGLIEYFEVAWRTYCQIWSPAENTPPDDLALRFYRLRPVIETGWEMPVLIKALVDGNSDDQILQEWTSITPKILLDDKLQAKEIATKLDGLRDEWIANDLDGWLSLHRFYQGVIEKLKIAVASEVKLYIVTTKEGRFVEQLLHQEGVDLPRDAIFGKEVKRPKYEIIRELIQAADHEPVSLWFVEDRIKTLQLVQQQSDLEDVKLFLADWGYNTQSERKAAQSDPRIQLLSLSQFAKDFPGWV”, “failed”. As for “MTASPLLTAFLPLALGIIMLGLGLSLTLADFARVVKYPKPVVVGLVCQILLLPLVCFLIANGFGLESALAVGLMLLAASPGGTTANLFSHLAHGDVALNITLTAVNSLIAILTMPLLVNLSLSWFMASDQAIPLQFAKVMQVFAIVLLPVALGMLIRHFAPAFAARMEKPMKLVAALFLAFTIVLALAKDWQTVVEYAPVVGLAALLFNLLSLTVGYWVPRLLNISKRQAIAIGMEIGIHNGTLAIALALSPSLLNNATMAVPAALYSLIMFFTAAGFGWWVSRGHVAAEPKGETVN”, the protein production result was “failed”. As to “MTATPGTTVPAPIMQTTDNSLTWLLQNLLDRTPGTRHALVLSRDGLRLCWTEHLTLDRADQLAAICSGIQALAQGASVEFGNGTGGVRHSMTEFHGGLLFIVEAGEGAHLAVVAVEDADPGVVGHQMTELVEQIGEHLRAEPRHAVPGGSSS”, the protein production entry is given as “failed”. Then “MTAYDLKLKCVCDYIQQHLDETLSLQQLSEVAGLSRFHFHRIFYAHLGMNIMKYTQMLRLKRASFQLVFKPEVKVIEIALDAGFDSPEAFARAFKRSFDQTPSAFRVEPNWQNWHRKFVYFTPESELKMNVTIIERPVEKIAYISHQGSPEKVFETAAKFIEWRKRTGLSPVKTSATYGIPFSDPEQTPEKEFRFDIAGSITKSIDQNNEGIEMSEIPAGRYAMVRHWGSHDYIRDSVYFLFRNWLPAQQEEAGDYPVFFHYHNFVHEVKEADLVTDIYLLLK”, with “failed”.

For the sequence “MTCAYRREIHHAHVAIRDWLAGDSRADALDALMARFAEDFSMVTPHGVVLDKTALGELFRSKGGTRPGLRIEIDGESLLASGVDGATLAYREIQSDAAGRSERLSTVVLHRDDEGRLYWRHLQETFCG”, the protein production entry is on record as “not failed”. In the case of “MTCDQIPGRMRVKAERTPFRCPTPVKRKKAMSSAMPQPETTPILACTVSRDVQNFDLLIEDMEAAMGESWGDLGFAEALAFFGQPESESLEFIALAIDTEDEDNLVLMGEIITQAKSRGIKVILIAEDVTPASLHQLLRKGADEFVPYPLPERELQSAIDRMSKPEPEQAQTHHNTAHLNKGAAREGALIVVHGLAGGTGSTTMAVNLAWELANIGGEDAPSVCLMDLDLQHGSVSTYLDLPRREAVFEMLSETQSMDEEVFGQALLSFEDKLQVLTAPSDMVPLDILSPEDIQRVIEMARAHFDYVIVDMPKTLVQWSETILQAAHVYFAMIELDMRSAQNALRMKRALQSEDLPFNKLRFALNKAPKFTDLSGKSRVKRMGESLGISIDLQLPDGGKQVTQGADHGLPLATSAPKNPLRREIAKLAQSLHELGRSDAKAA”, the protein production entry is “failed”.
